Target: hK3 (PSA) (human) (UniProt P07288)
Assay: cell-based or functional assay

hK3 (PSA) (human), sequence (P07288 25-261 limits assumed): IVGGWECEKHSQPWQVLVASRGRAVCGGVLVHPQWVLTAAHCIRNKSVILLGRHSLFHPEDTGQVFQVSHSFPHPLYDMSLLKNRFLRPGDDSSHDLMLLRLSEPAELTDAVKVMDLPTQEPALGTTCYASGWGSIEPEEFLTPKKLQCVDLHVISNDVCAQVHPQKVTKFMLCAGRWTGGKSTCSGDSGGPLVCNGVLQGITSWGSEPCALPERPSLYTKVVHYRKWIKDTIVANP

B1: rACT8.20 (designed binder)
chain: MRGSHHHHHHSRHPNSPLDEENLTQENQDRGTHVDLGLASANVDFAFSLYKQLVLKAPDKNVIFSPLSISTALAFLSLGAHNTTLTEILKGLKFNLTETSEAEIHQSFQHLLRTLNQSSDELQLSMGNAMFVKEQLSLLDRFTEDAKRLYGSEAFATDFQDSAAAKKLINDYVKNGTRGKITDLIKDLDSQTMMVLVNYIFFKAKWEMPFDPQDTHQSRFYLSKKKWVMVPMMSLHHLTIPYFRDEELSCTVVELKYTGNASALFILPDQDKMEEVEAMLLPETLKRWRDSLEFREIGELYLPKFSISRDYNLNDILLQLGIEEAFTSKADLSGITGARNLAVSQVVHKAVLDVFEEGTEASAATAVKITLRSRAVETRTIVRFNRPFLMIIVPTDTQNIFFMSKVTNPKQA
Inhibition % (residual enzyme activity, CFP-TFRSA-YFP substrate, 90 min at 37°): 45%

Source: patent US20060269536A1
